Changes are numbered by the printed parent chain. Numbers in names are those of the source.
Columns and labels:
[1] = target: T1, human PD-L1 (programmed death ligand 1) (human, UniProt Q9NZQ7 19-290); test: flow cytometry (FACS) on CHO-K1/hPDL1 cells, Experiment 2
T1 construct: whole, on cells; also called hPDL1; CD274

[2] = target: T2, cynomolgus monkey 4-1BB (cynomolgus monkey); test: flow cytometry (FACS) on CHO-K1/cyno 4-1BB cells, Experiment 2
T2 construct: whole, on cells; also called cyno 4-1BB

[3] = target: T3, human BCMA (human, UniProt Q02223 1-184); test: FACS on HEK293T/hBCMA cells, Experiment 1
T3 construct: whole, on cells; also called hBCMA; TNFRSF17
T3 sequence (looked up): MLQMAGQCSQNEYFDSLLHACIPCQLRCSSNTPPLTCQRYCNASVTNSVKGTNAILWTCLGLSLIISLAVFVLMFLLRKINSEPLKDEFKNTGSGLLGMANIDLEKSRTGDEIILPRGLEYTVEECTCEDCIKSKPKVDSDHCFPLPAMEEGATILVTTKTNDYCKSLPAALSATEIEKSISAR

[4] = target: T4, cynomolgus monkey BCMA (cynomolgus monkey, UniProt A0A2K5UD97 1-183); test: FACS on HEK293T/cyno BCMA cells
T4 construct: whole, on cells; also called cyno BCMA

[5] = target: T3, human BCMA; test: FACS on NCI-H929 cells
[6] = target: T5, human CTLA4 on CHO-K1/hCTLA4 cells (human, UniProt P16410 36-223); test: flow cytometry competition: biotinylated human B7-1-Fc on CHO-K1/hCTLA4 cells, Experiment 2
T5 construct: whole, on cells; CHO-K1 cell line highly expressing human CTLA4; also called human CTLA4 cell

[7] = target: T5, human CTLA4 on CHO-K1/hCTLA4 cells; test: flow cytometry on CHO-K1/hCTLA4 cells, Experiment 3
[8] = target: T6, human 4-1BB (tumor necrosis factor receptor superfamily member 9) (human, UniProt Q07011 24-255); test: cell-based or functional assay
[9] = target: T7, human 4-1BB (human, UniProt Q07011 24-255); test: flow cytometry, CHO-K1/hu 4-1BB cells
T7 construct: whole, on cells; also called CD137; TNFRSF9

[10] = target: T1, human PD-L1 (programmed death ligand 1); test: flow cytometry (FACS) on CHO-K1/hPDL1 cells, Experiment 1
[11] = target: T6, human 4-1BB (tumor necrosis factor …); test: flow cytometry (FACS) on CHO-K1/hu 4-1BB cells
[12] = target: T2, cynomolgus monkey 4-1BB; test: flow cytometry (FACS) on CHO-K1/cyno 4-1BB cells, Experiment 1
[13] = target: T1, human PD-L1 (programmed death ligand 1); test: flow cytometry (FACS) on CHO-K1/hPDL1 cells, Experiment 3

B1: PR004270, PD-L1×4-1BB bispecific antibody molecule of Fab-HCAb symmetric structure (bispecific antibody, human IgG1)
chain 1: EVQLVESGGGLVQPGGSLRLSCAASGFTFSSYWMSWVRQAPGKGLEWVANIKQEGSEKYYVDSVKGRFTISRDNAKNSLYLQMNSLRAEDTAVYYCARDRAVAGAFDIWGQGTMVTVSSASTKGPSVFPLAPSSKSTSGGTAALGCLVKDYFPEPVTVSWNSGALTSGVHTFPAVLQSSGLYSLSSVVTVPSSSLGTQTYICNVNHKPSNTKVDKKVEPKSC
chain 2: not shown
notes: Structure 1 Fab(CL)-VH-Fc; Fab of PR000265, VH of PR001760; linker H1_15, human IgG1 hinge (C220S); human IgG1 (L234A, L235A)
With B1 the EC50 [1] was 0.963 nM and the EC50 [2] was 1.55 nM.

B2: PR002929 (bispecific antibody, human IgG1, lambda, L234A L235A)
light: QAVVTQEPSLTVSPGGTVTLTCRSSTGAVTTSNYANWVQQKPGQAPRGLIGGTNKRAPWTPARFSGSLLGDKAALTLLGAQPEDEAEYFCALWYSNLWVFGGGTKLTVLGQPKAAPSVTLFPPSSEELQANKATLVCLISDFYPGAVTVAWKADSSPVKAGVETTTPSKQSNNKYAASSYLSLTPEQWKSHRSYSCQVTHEGSTVEKTVAPTECS
heavy: not shown
chain: EVQLVETGGGLIQPGGSLRLSCAASGFTVSDNYMTWVRQAPGKGLEWVSVIFSGGNTYYADSVKGRFTISRDNAKNTLYLQMNSLRAEDTALYYCARRNYDDTRGTDVFDIWGQGTMVTVSSASEPKSSDKTHTCPPCPAPEAAGGPSVFLFPPKPKDTLMISRTPEVTCVVVDVSHEDPEVKFNWYVDGVEVHNAKTKPREEQYNSTYRVVSVLTVLHQDWLNGKEYKCKVSNKALPAPIEKTISKAKGQPREPQVCTLPPSREEMTKNQVSLSCAVKGFYPSDIAVEWESNGQPENNYKTTPPVLDSDGSFFLVSKLTVDKSRWQQGNVFSCSVMHEALHNHYTQKSLSLSPGK
With B2 the EC50 [3] was 9.02 nM, the “Maximum MFI” value [3] was 17600 and the “Maximum MFI” value [4] was 13800. For the same binder, the EC50 [5] was 50.2 nM.

B3: PR001990 (bispecific antibody, human IgG1, lambda, L234A L235A)
light: B2 light
heavy: EVQLLESGGGLVQPGGSLRLSCAASGFTFNTYAMNWVRQAPGKGLEWVSRIRSKYNNYATYYADSVKDRFTISRDDSKSTLYLQMNSLRAEDTAVYYCVRHGNFGNSYVSWFAYWGQGTLVTVSSASTKGPSVFPLAPSSKSTSGGTAALGCLVKDYFPEPVTVSWNSGALTSGVHTFPAVLQSSGLYSLSSVVTVPSSSLGTQTYICNVNHKPSNTKVDKKVEPKSCDKTHTCPPCPAPEAAGGPSVFLFPPKPKDTLMISRTPEVTCVVVDVSHEDPEVKFNWYVDGVEVHNAKTKPREEQYNSTYRVVSVLTVLHQDWLNGKEYKCKVSNKALGAPIEKTISKAKGQPREPQVYTLPPCREEMTKNQVSLWCLVKGFYPSDIAVEWESNGQPENNYKTTPPVLDSDGSFFLYSKLTVDKSRWQQGNVFSCSVMHEALHNHYTQKSLSLSPGK
chain: B2 chain with P238G
B3 was tested, and the “Maximum MFI” value [3] was 13400, the “Maximum MFI” value [4] was 9170 and the “Maximum MFI” value [5] was 1840.

B4: PR002935 (bispecific antibody, human IgG1, lambda, L234A L235A)
light: B2 light
heavy: not shown
chain: B2 chain
With B4 the EC50 [3] was 14.8 nM, the “Maximum MFI” value [3] was 23900 and the “Maximum MFI” value [4] was 22000. For the same binder, the “Maximum MFI” value [5] was 3840.

B5: HER2xCTLA4 bispecific antibody molecule PR002672 (bispecific antibody, human IgG1)
chain 1: not shown
chain 2: not shown
chain 3: EVQLVESGGGLIQPGGSLRLSCAVSGFTVSKNYMSWVRQAPGKGLEWVSVVYSGGSKTYADSVKGRFTISRDNSKNTLYLQMNSLRAEDTAVYYCARAVPHSPSSFDIWGQGTMVTVSSGGGGSEVQLVESGGGLIQPGGSLRLSCAVSGFTVSKNYMSWVRQAPGKGLEWVSVVYSGGSKTYADSVKGRFTISRDNSKNTLYLQMNSLRAEDTAVYYCARAVPHSPSSFDIWGQGTMVTVSSEPKSSDKTHTCPPCPAPELLGGPDVFLFPPKPKDTLMISRTPEVTCVVVDVSHEDPEVKFNWYVDGVEVHNAKTKPREEQYNSTYRVVSVLTVLHQDWLNGKEYKCKVSNKALPAPEEKTISKAKGQPREPQVCTLPPSREEMTKNQVSLSCAVKGFYPSDIAVEWESNGQPENNYKTTPPVLDSDGSFFLVSKLTVDKSRWQQGNVFSCSVMHEALHNHYTQKSLSLSPGK
notes: Structure 18 Fab(cross Fd/LC)-Fc-VH-VH (trivalent asymmetric); PR000210 Fab, two PR000184 VH in tandem, linker GS_5
For B5, the IC50 [6] was 0.983 nM and the EC50 [7] was 2.79 nM.

B6: Anti-4-1BB monoclonal antibody urelumab analog, hIgG4 (S228P) (antibody, V domains shown)
VH: QVQLQQWGAGLLKPSETLSLTCAVYGGSFSGYYWSWIRQSPEKGLEWIGEINHGGYVTYNPSLESRVTISVDTSKNQFSLKLSSVTAADTAVYYCARDYGPGNYDWYFDLWGRGTLVTVSS
VL: EIVLTQSPATLSLSPGERATLSCRASQSVSSYLAWYQQKPGQAPRLLIYDASNRATGIPARFSGSGSGTDFTLTISSLEPEDFAVYYCQQRSNWPPALTFGGGTKVEIKR
B6 was tested, and the “IFN-γ EC50 (nM), T cells with MDA-MB-231 target cells” value [8] was 0.536 nM and the “IL-2 EC50 (nM), T cells with MDA-MB-231 target cells” value [8] was 2.94 nM.

B7: PR001760, anti-4-1BB heavy-chain antibody 1016P0011G10, hIgG1 (antibody, V domains shown)
VH: EVQLVESGGGVVQPGGSLRLSCAASGFTFSNYAMTWVRQAPEKGLEWVSSISGSGVSTYYADSVKGRFTISRDNSKNTLYLQMTRLTAEDTAVYFCAKEGSSETDDHYYNVDVWGQGTTVTVSS
notes: Heavy-chain-only antibody (HCAb), no light chain
B7 was tested, and the EC50 [9] was 3.76 nM and the “Maximum MFI” value [9] was 83600.

B8: PR003549, PD-L1×4-1BB bispecific antibody molecule of IgG-VH tetravalent symmetric structure (bispecific antibody)
light: DIQMTQSPSTLSASVGDRVTVTCRASQSIYIWLAWYQQKPGKAPNLLIYKASSLETGVPSRFSGSGSGTEFTLTISSLQPDDFATYYCQQYYGSSRTFGQGTKVEIKRTVAAPSVFIFPPSDEQLKSGTASVVCLLNNFYPREAKVQWKVDNALQSGNSQESVTEQDSKDSTYSLSSTLTLSKADYEKHKVYACEVTHQGLSSPVTKSFNRGEC
heavy: EVQLVESGGGLVQPGGSLRLSCAASGFTFSSYWMSWVRQAPGKGLEWVANIKQEGSEKYYVDSVKGRFTISRDNAKNSLYLQMNSLRAEDTAVYYCARDRAVAGAFDIWGQGTMVTVSSASTKGPSVFPLAPSSKSTSGGTAALGCLVKDYFPEPVTVSWNSGALTSGVHTFPAVLQSSGLYSLSSVVTVPSSSLGTQTYICNVNHKPSNTKVDKKVEPKSCDKTHTCPPCPAPEAAGGPSVFLFPPKPKDTLMISRTPEVTCVVVDVSHEDPEVKFNWYVDGVEVHNAKTKPREEQYNSTYRVVSVLTVLHQDWLNGKEYKCKVSNKALGAPIEKTISKAKGQPREPQVYTLPPSREEMTKNQVSLTCLVKGFYPSDIAVEWESNGQPENNYKTTPPVLDSDGSFFLYSKLTVDKSRWQQGNVFSCSVMHEALHNHYTQKSLSLSPGEPKSSDKTHTPPPPPRTEVQLLESGGGLVQLGGSLRLSCAASGFTFSRYAMTWVRQAPEKGLEWVSSISGSGDDTYYGDSVKGRFTISRDNSQNTVYLQMNSLRAEDTAVYFCAKEKAGTTGDYYYNVDVWGQGTTVTVSS
notes: Structure 5; IgG PR000265, VH of PR001758 at C-terminus of heavy chain; linker H1_15-RT; human IgG1 (L234A, L235A, P329G)
With B8 the EC50 [10] was 1.56 nM, the “Maximum MFI” value [10] was 2220 MFI and the EC50 [11] was 1.9 nM. For the same binder, the “Maximum MFI” value [11] was 1550 MFI, the “IFN-γ EC50 (nM), T cells with MDA-MB-231 target cells” value [8] was 0.0695 nM and the “IL-2 EC50 (nM), T cells with MDA-MB-231 target cells” value [8] was 0.12 nM. For the same binder, the EC50 [12] was 1.86 nM and the “Maximum MFI” value [12] was 4980 MFI.

B9: Anti-PD-L1 91G3H5H3 (D54E), hIgG1 (N297A) (antibody)
light: B8 light
heavy: not shown
notes: hIgG1 (N297A); also called PR000265
B9 was tested, and the EC50 [10] was 0.781 nM, the “Maximum MFI” value [10] was 2000 MFI and the EC50 [13] was 1.56 nM. The “Maximum MFI” value [13] was 47000 MFI and the EC50 [1] was 0.356 nM.

B10: Anti-4-1BB monoclonal antibody utomilumab analog, hIgG2 (antibody, V domains shown)
VH: EVQLVQSGAEVKKPGESLRISCKGSGYSFSTYWISWVRQMPGKGLEWMGKIYPGDSYTNYSPSFQGQVTISADKSISTAYLQWSSLKASDTAMYYCARGYGIFDYWGQGTLVTVSS
VL: SYELTQPPSVSVSPGQTASITCSGDNIGDQYAHWYQQKPGQSPVLVIYQDKNRPSGIPERFSGSNSGNTATLTISGTQAMDEADYYCATYTGFGSLAVFGGGTKLTVLG
notes: tied to PR000483 by the list of control molecules; also called PR000483
With B10 the EC50 [2] was 0.337 nM, the EC50 [12] was 0.347 nM and the “Maximum MFI” value [12] was 5390 MFI.
